These results are taken from patent US20210032313A1 (Daiichi Sankyo, published 2021).

One assay deals with human KLK7 (human, UniProt P49862 30-253). The assay can be described thus: cell-based or functional assay.
Assay [1] concerns the target T1, human KLK5 (human, UniProt Q9Y337 67-293).
T1 sequence: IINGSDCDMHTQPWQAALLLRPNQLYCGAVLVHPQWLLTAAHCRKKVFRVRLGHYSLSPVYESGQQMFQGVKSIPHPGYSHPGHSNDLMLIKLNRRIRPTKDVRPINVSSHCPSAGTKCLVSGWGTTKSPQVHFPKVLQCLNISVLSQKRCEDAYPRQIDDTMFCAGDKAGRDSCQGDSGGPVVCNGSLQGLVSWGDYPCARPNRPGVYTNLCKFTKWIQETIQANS
The assay is described as follows: cell-based or functional assay.

The target in a further assay is T2, human KLK14 (human, UniProt Q9P0G3 25-251).
T2 sequence: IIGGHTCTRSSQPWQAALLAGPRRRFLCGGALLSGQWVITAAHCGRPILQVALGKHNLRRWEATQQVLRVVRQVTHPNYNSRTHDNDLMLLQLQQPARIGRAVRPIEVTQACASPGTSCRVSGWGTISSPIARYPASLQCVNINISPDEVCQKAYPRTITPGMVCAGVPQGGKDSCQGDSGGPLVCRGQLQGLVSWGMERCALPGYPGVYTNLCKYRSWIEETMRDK
The assay can be described thus: cell-based or functional assay.

For assay [2], the target named is T1, human KLK5. The assay can be described thus: SPR, BIAcore T200; biotinylated KLK5 captured on chip, peptide as analyte; single cycle kinetics, 1:1 model. As to the method: In order to measure the binding affinity of the KLK5 inhibitory peptides, surface plasmon resonance analysis was conducted using BIAcore T 200 (GE healthcare). A complementary strand of DNA of a streptavidin conjugate was captured by hybridization on Sensor Chip CAP (GE healthcare) on which single-stranded DNA immobilized. Next, KLK5 biotinylated using EZ-Link NHS-PEG4-Biotin (Thermo Fisher Scientific) was captured at a flow rate of 10 μL/min to immobilize about 10 RU. Thereafter, the KLK5 inhibitory peptide, serially diluted 2-fold with HBS-EP (0.625 to 10 nM), was added thereto as an analyte at a flow rate of 30 μL/min. In the BIAcore T 200 Evaluation software (version 2.0), kon and koff were calculated by analysis using Single cycle kinetics in a simple one-to-one Langmuir binding model. The dissociation constant KD was calculated as a ratio of koff/kₒₙ. Further, multiple KLK5 inhibitory peptides were measured by regenerating Sensor Chip CAP using a Regeneration buffer attached to a Biotin CAPture Kit (GE healthcare) and repeatedly capturing biotinylated KLK5.
(In general: Surface plasmon resonance follows binding to a sensor surface in real time, without labels.)

A further assay addresses bChymotrypsin. The assay is described as follows: fluorogenic peptide substrate cleavage, 1 µM inhibitor. As to the method:
FIG. 3A includes graphs to evaluate the cross-reactivity of each inhibitory peptide with proteases, using the degradation of a peptide substrate as an index. For evaluating the Bovine trypsin inhibitory activity, trypsin (Pierce, 20233) with a final concentration of 5 nM and a substrate peptide Boc-Val-Pro-Arg-AMC (R&D Systems, Inc., ES011) with a final concentration of 100 μM were used. For evaluating the Human trypsin inhibitory activity, trypsin (Sigma-Aldrich Co. LLC, T6424) with a final concentration of 1 nM and a substrate peptide Boc-Val-Pro-Arg-AMC (R&D Systems, Inc., ES011) with a final concentration of 100 μM were used. For evaluating the Bovine α-chymotrypsin inhibitory activity, chymotrypsin (Worthington Biochemical Corporation, LS001434) with a final concentration of 10 nM and a substrate peptide Suc-Leu-Leu-Val-Tyr-MCA (PEPTIDE […], INC., 3120-v) with a final concentration of 100 μM were used.
(§1) The specificities for other proteases were evaluated using the degradation of a substrate peptide as an index. As in the method described in (3-1), 25 μL each of a protease and a sample diluted with an assay buffer were mixed (to a final concentration of sample of 1 μM), followed by a reaction at 37° C. for 20 minutes. Thereafter, 50 μL of a substrate diluted with an assay buffer was added thereto, and the fluorescence signal was measured using Enspire (PerkinElmer). An assay buffer (50 mM Tris, 150 mM NaCl, pH 8.0) was used for the evaluation of the protease activity, and a PROTEOSAVE® SS96F black plate (Sumitomo Bakelite Co., Ltd.) was used for the reaction and the measurement. The combinations of the protease and the substrate used for the evaluation of the specificity were as follows.

The next assay addresses T3, KLK12 (human, UniProt Q9UKR0).
T3 construct: commercial enzyme (R&D Systems, 3095-SE); 0.1 µg/mL in the assay; substrate Boc-Val-Pro-Arg-AMC 100 µM; also called Human KLK12; hKLK12
T3 sequence (protease, looked up): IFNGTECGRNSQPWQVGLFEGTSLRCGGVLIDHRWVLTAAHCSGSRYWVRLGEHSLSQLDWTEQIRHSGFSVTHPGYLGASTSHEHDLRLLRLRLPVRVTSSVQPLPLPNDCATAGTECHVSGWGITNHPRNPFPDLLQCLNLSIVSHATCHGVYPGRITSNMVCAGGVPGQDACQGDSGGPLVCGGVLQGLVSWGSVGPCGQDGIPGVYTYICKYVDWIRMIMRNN
The assay is described as above. As to the method:
FIG. 3G includes graphs to evaluate the cross-reactivity of each inhibitory peptide with proteases, using the degradation of a peptide substrate as an index. For evaluating the Human KLK7 inhibitory activity, hKLK7 with a final concentration of 1 μg/mL and a substrate peptide Mca-Arg-Pro-Lys-Pro-Val-Glu-Nval-Trp-Arg-Lys (Dnp)-NH₂ (R&D Systems, Inc., ES002) with a final concentration of 20 μM were used. For evaluating the Human KLK8 inhibitory activity, hKLK8 (UniProt: 060259, prepared by the inventors) with a final concentration of 5 nM and a substrate peptide Boc-Val-Pro-Arg-AMC (R&D Systems, Inc., ES011) with a final concentration of 100 μM were used. For evaluating the Human KLK12 inhibitory activity, hKLK12 (R&D Systems, Inc., 3095-SE) with a final concentration of 0.1 μg/mL and a substrate peptide Boc-Val-Pro-Arg-AMC (R&D Systems, Inc., ES011) with a final concentration of 100 μM were used.
as §1

Broadly, the Kd is the free concentration of one partner at which half of the binding sites on the other are occupied at equilibrium, for simple one-to-one binding. As usually defined, the koff is a measure of how fast the partners let go of each other. The kon is the rate constant with which the complex forms. Lower therefore signals slow association.

Where only a bound is given, the exact number is not on record here.

human KLK7, sequence (P49862 30-253): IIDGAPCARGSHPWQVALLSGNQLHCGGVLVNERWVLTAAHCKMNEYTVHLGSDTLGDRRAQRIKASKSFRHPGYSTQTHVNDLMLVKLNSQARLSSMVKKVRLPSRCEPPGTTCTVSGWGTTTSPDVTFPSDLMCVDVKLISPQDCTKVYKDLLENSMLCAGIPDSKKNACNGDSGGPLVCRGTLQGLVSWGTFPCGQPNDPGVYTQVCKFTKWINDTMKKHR

B1: KLK5/KLK14 inhibitory peptide K51069 (peptide)
chain: GPQFGLFSKYRTPNCSQVVETYCNRDYDPVCGSDMSTYANECTLCMKIREGGHNIKIIRNGPCGG
notes: SPINK2 mutant peptide made in E. coli
Take B1: the “IC50(nM) for hKLK7” value in the assay with human KLK7 was greater than 1000 nM. Besides, in the assay with human KLK5 [1], the “IC50(nM) for hKLK5” value was 6.8 nM. For the same molecule, the “IC50(nM) for hKLK14” value with human KLK14 came out at 72 nM. In the assay with human KLK5 [2], this molecule had a Kd of no more than 0.001 nM, a koff of no more than 1e-06 s⁻¹ and a kon of 940000 M⁻¹ s⁻¹. Besides, the binding result in the assay with bChymotrypsin is on record as “binds”. Moreover, the binding result in the assay with KLK12 is given as “binds”.

B2: KLK5/KLK14 inhibitory peptide K50015 (peptide)
chain: GPQFGLFSKYRTPNCYDTTTHYCSREYDPVCGSDMSTYANECTLCMKIREGGHNIKIIRNGPCGG
notes: as for B1
As to B2, the “IC50(nM) for hKLK7” value with human KLK7 is greater than 1000 nM. For the same molecule, the “IC50(nM) for hKLK5” value with human KLK5 [1] turned out to be 6.8 nM. Further, the “IC50(nM) for hKLK14” value with human KLK14 was 17 nM. In the assay with human KLK5 [2], this molecule displayed a Kd of no more than 0.0011 nM, a koff of no more than 1e-06 s⁻¹ and a kon of 940000 M⁻¹ s⁻¹. In the assay with bChymotrypsin, the binding result is given as “binds”. Besides, the binding result with KLK12 is given as “binds”.
